T1: LZTR1 R810W-FLAG (human, UniProt Q8N653 1-840)
T1 construct: Stably expressed in U87 cells by lentivirus; also called LZTR1-FLAG-R810W; LZTR1 RW; not shown: FLAG tag
T1 sequence (looked up): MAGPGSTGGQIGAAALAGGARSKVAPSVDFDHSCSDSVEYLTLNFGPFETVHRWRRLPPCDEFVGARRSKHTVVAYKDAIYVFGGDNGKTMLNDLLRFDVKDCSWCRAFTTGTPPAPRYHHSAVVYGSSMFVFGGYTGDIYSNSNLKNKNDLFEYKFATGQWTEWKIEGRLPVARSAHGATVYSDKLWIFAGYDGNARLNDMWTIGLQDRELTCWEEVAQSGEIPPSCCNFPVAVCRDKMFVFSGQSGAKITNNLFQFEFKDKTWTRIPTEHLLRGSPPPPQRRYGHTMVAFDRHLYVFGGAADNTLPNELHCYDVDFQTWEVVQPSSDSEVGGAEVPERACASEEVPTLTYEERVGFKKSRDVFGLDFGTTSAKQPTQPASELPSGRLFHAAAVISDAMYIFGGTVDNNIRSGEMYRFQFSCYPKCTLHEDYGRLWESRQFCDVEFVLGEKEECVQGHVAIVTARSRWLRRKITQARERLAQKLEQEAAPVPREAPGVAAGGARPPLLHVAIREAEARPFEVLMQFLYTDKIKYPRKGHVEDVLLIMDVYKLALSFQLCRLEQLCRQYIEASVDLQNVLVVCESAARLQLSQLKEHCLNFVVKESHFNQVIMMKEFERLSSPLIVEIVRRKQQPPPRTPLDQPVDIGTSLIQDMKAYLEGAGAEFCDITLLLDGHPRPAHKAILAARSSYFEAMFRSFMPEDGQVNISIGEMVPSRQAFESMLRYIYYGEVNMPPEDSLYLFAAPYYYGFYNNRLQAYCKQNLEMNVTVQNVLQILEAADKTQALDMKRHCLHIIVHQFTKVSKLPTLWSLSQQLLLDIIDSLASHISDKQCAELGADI

T2: LZTR1-FLAG (human, UniProt Q8N653 1-840)
T2 construct: Expressed in HEK 293T, HeLa or U87 cells; used as cell lysate; also called LZTR1 wild type-FLAG; LZTR1 WT; not shown: FLAG tag at the C-terminus
T2 sequence (looked up): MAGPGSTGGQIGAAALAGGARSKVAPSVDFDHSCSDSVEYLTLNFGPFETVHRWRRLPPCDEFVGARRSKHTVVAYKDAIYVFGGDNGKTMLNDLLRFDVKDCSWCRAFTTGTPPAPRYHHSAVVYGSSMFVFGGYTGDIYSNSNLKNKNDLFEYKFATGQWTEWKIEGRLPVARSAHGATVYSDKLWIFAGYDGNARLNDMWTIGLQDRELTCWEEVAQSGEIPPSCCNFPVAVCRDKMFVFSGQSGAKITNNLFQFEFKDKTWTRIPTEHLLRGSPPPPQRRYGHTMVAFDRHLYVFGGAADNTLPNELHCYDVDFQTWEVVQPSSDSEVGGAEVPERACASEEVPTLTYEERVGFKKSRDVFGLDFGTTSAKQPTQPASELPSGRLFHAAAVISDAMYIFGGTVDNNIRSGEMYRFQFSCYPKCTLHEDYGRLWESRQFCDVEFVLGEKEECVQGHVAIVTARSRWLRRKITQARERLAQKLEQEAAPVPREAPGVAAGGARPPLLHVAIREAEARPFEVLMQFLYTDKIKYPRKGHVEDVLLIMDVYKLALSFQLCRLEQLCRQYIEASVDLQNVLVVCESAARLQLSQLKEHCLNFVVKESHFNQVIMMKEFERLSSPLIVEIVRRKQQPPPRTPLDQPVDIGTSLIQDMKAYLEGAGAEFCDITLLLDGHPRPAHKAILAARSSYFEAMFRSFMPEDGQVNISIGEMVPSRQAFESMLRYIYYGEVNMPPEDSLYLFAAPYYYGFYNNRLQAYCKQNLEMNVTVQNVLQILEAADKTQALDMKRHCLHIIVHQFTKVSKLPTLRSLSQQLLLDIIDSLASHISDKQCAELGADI

B1: NGLY1 (other, human, UniProt Q96IV0 2-654, looked up)
chain: AAAALGSSSGSASPAVAELCQNTPETFLEASKLLLTYADNILRNPNDEKYRSIRIGNTAFSTRLLPVRGAVECLFEMGFEEGETHLIFPKKASVEQLQKIRDLIAIERSSRLDGSNKSHKVKSSQQPAASTQLPTTPSSNPSGLNQHTRNRQGQSSDPPSASTVAADSAILEVLQSNIQHVLVYENPALQEKALACIPVQELKRKSQEKLSRARKLDKGINISDEDFLLLELLHWFKEEFFHWVNNVLCSKCGGQTRSRDRSLLPSDDELKWGAKEVEDHYCDACQFSNRFPRYNNPEKLLETRCGRCGEWANCFTLCCRAVGFEARYVWDYTDHVWTEVYSPSQQRWLHCDACEDVCDKPLLYEIGWGKKLSYVIAFSKDEVVDVTWRYSCKHEEVIARRTKVKEALLRDTINGLNKQRQLFLSENRRKELLQRIIVELVEFISPKTPKPGELGGRISGSVAWRVARGEMGLQRKETLFIPCENEKISKQLHLCYNIVKDRYVRVSNNNQTISGWENGVWKMESIFRKVETDWHMVYLARKEGSSFAYISWKFECGSVGLKVDSISIRTSSQTFQTGTVEWKLRSDTAQVELTGDNSLHSYADFSGATEVILEAELSRGDGDVAWQHTQLFRQSLNDHEENCLEIIIKFSDL
B2: PAFAH1B1 (other, human, UniProt P43034 1-410, looked up)
chain: MVLSQRQRDELNRAIADYLRSNGYEEAYSVFKKEAELDVNEELDKKYAGLLEKKWTSVIRLQKKVMELESKLNEAKEEFTSGGPLGQKRDPKEWIPRPPEKYALSGHRSPVTRVIFHPVFSVMVSASEDATIKVWDYETGDFERTLKGHTDSVQDISFDHSGKLLASCSADMTIKLWDFQGFECIRTMHGHDHNVSSVAIMPNGDHIVSASRDKTIKMWEVQTGYCVKTFTGHREWVRMVRPNQDGTLIASCSNDQTVRVWVVATKECKAELREHEHVVECISWAPESSYSSISEATGSETKKSGKPGPFLLSGSRDKTIKMWDVSTGMCLMTLVGHDNWVRGVLFHSGGKFILSCADDKTLRVWDYKNKRCMKTLNAHEHFVTSLDFHKTAPYVVTGSVDQTVKVWECR
B3: PTOV1 (other, human, UniProt Q86YD1 1-416, looked up)
chain: MVRPRRAPYRSGAGGPLGGRGRPPRPLVVRAVRSRSWPASPRGPQPPRIRARSAPPMEGARVFGALGPIGPSSPGLTLGGLAVSEHRLSNKLLAWSGVLEWQEKRRPYSDSTAKLKRTLPCQAYVNQGENLETDQWPQKLIMQLIPQQLLTTLGPLFRNSQLAQFHFTNRDCDSLKGLCRIMGNGFAGCMLFPHISPCEVRVLMLLYSSKKKIFMGLIPYDQSGFVSAIRQVITTRKQAVGPGGVNSGPVQIVNNKFLAWSGVMEWQEPRPEPNSRSKRWLPSHVYVNQGEILRTEQWPRKLYMQLIPQQLLTTLVPLFRNSRLVQFHFTKDLETLKSLCRIMDNGFAGCVHFSYKASCEIRVLMLLYSSEKKIFIGLIPHDQGNFVNGIRRVIANQQQVLQRNLEQEQQQRGMGG
B4: PNPLA2 (other, human, UniProt Q96AD5 1-504, looked up)
chain: MFPREKTWNISFAGCGFLGVYYVGVASCLREHAPFLVANATHIYGASAGALTATALVTGVCLGEAGAKFIEVSKEARKRFLGPLHPSFNLVKIIRSFLLKVLPADSHEHASGRLGISLTRVSDGENVIISHFNSKDELIQANVCSGFIPVYCGLIPPSLQGVRYVDGGISDNLPLYELKNTITVSPFSGESDICPQDSSTNIHELRVTNTSIQFNLRNLYRLSKALFPPEPLVLREMCKQGYRDGLRFLQRNGLLNRPNPLLALPPARPHGPEDKDQAVESAQAEDYSQLPGEDHILEHLPARLNEALLEACVEPTDLLTTLSNMLPVRLATAMMVPYTLPLESALSFTIRLLEWLPDVPEDIRWMKEQTGSICQYLVMRAKRKLGRHLPSRLPEQVELRRVQSLPSVPLSCAAYREALPGWMRNNLSLGDALAKWEECQRQLLLGLFCTNVAFPPEALRMRAPADPAPAPADPASPQHQLAGPAPLLSTPAPEARPVIGALGL
B5: RABGEF1 (other, human, UniProt Q9UJ41 1-491, looked up)
chain: MSLKSERRGIHVDQSDLLCKKGCGYYGNPAWQGFCSKCWREEYHKARQKQIQEDWELAERLQREEEEAFASSQSSQGAQSLTFSKFEEKKTNEKTRKVTTVKKFFSASSRVGSKKEIQEAKAPSPSINRQTSIETDRVSKEFIEFLKTFHKTGQEIYKQTKLFLEGMHYKRDLSIEEQSECAQDFYHNVAERMQTRGKVPPERVEKIMDQIEKYIMTRLYKYVFCPETTDDEKKDLAIQKRIRALRWVTPQMLCVPVNEDIPEVSDMVVKAITDIIEMDSKRVPRDKLACITKCSKHIFNAIKITKNEPASADDFLPTLIYIVLKGNPPRLQSNIQYITRFCNPSRLMTGEDGYYFTNLCCAVAFIEKLDAQSLNLSQEDFDRYMSGQTSPRKQEAESWSPDACLGVKQMYKNLDLLSQLNERQERIMNEAKKLEKDLIDWTDGIAREVQDIVEKYPLEIKPPNQPLAAIDSENVENDKLPPPLQPQVYAG
B6: PPP6C (other, human, UniProt O00743 1-305, looked up)
chain: MAPLDLDKYVEIARLCKYLPENDLKRLCDYVCDLLLEESNVQPVSTPVTVCGDIHGQFYDLCELFRTGGQVPDTNYIFMGDFVDRGYYSLETFTYLLALKAKWPDRITLLRGNHESRQITQVYGFYDECQTKYGNANAWRYCTKVFDMLTVAALIDEQILCVHGGLSPDIKTLDQIRTIERNQEIPHKGAFCDLVWSDPEDVDTWAISPRGAGWLFGAKVTNEFVHINNLKLICRAHQLVHEGYKFMFDEKLVTVWSAPNYCYRCGNIASIMVFKDVNTREPKLFRAVPDSERVIPPRTTTPYFL
B7: POR (other, human, UniProt P16435 2-677, looked up)
chain: GDSHVDTSSTVSEAVAEEVSLFSMTDMILFSLIVGLLTYWFLFRKKKEEVPEFTKIQTLTSSVRESSFVEKMKKTGRNIIVFYGSQTGTAEEFANRLSKDAHRYGMRGMSADPEEYDLADLSSLPEIDNALVVFCMATYGEGDPTDNAQDFYDWLQETDVDLSGVKFAVFGLGNKTYEHFNAMGKYVDKRLEQLGAQRIFELGLGDDDGNLEEDFITWREQFWPAVCEHFGVEATGEESSIRQYELVVHTDIDAAKVYMGEMGRLKSYENQKPPFDAKNPFLAAVTTNRKLNQGTERHLMHLELDISDSKIRYESGDHVAVYPANDSALVNQLGKILGADLDVVMSLNNLDEESNKKHPFPCPTSYRTALTYYLDITNPPRTNVLYELAQYASEPSEQELLRKMASSSGEGKELYLSWVVEARRHILAILQDCPSLRPPIDHLCELLPRLQARYYSIASSSKVHPNSVHICAVVVEYETKAGRINKGVATNWLRAKEPAGENGGRALVPMFVRKSQFRLPFKATTPVIMVGPGTGVAPFIGFIQERAWLRQQGKEVGETLLYYGCRRSDEDYLYREELAQFHRDGALTQLNVAFSREQSHKVYVQHLLKQDREHLWKLIEGGAHIYVCGDARNMARDVQNTFYDIVAELGAMEHAQAVDYIKKLMTKGRYSLDVWS

What was measured:
[1] = target: T1, LZTR1 R810W-FLAG; test: IP/MS, LZTR1 R810W-FLAG, U87
Procedure, shortened: (§1)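 Extracted peptides in 3% acetonitrile/0.1% formic acid ran on a 50 cm C18 column into an Orbitrap Fusion, with MaxQuant identification and spectral counting.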

[2] = target: T2, LZTR1-FLAG; test: IP/MS, LZTR1 wild type-FLAG, U87
Procedure, shortened: as §1

Binder | binding result [1] | binding result [2]
B1 | binds | binds
B2 | binds | binds
B3 | binds | binds
B4 | binds | binds
B5 | binds | binds
B6 | binds | binds
B7 | binds | binds
